{"source": "paper doi:10.1101/2023.04.21.537819", "about": "“DNA damage-induced interaction between a lineage addiction oncogenic transcription factor and the MRN complex shapes a tissue-specific DNA Damage Response and cancer predisposition” (bioRxiv, 2023)", "binders": {"B1": {"name": "NBS1-GFP (natural protein, UniProt O60934 1-754, looked up)", "chain": "MWKLLPAAGPAGGEPYRLLTGVEYVVGRKNCAILIENDQSISRNHAVLTANFSVTNLSQTDEIPVLTLKDNSKYGTFVNEEKMQNGFSRTLKSGDGITFGVFGSKFRIEYEPLVACSSCLDVSGKTALNQAILQLGGFTVNNWTEECTHLVMVSVKVTIKTICALICGRPIVKPEYFTEFLKAVESKKQPPQIESFYPPLDEPSIGSKNVDLSGRQERKQIFKGKTFIFLNAKQHKKLSSAVVFGGGEARLITEENEEEHNFFLAPGTCVVDTGITNSQTLIPDCQKKWIQSIMDMLQRQGLRPIPEAEIGLAVIFMTTKNYCDPQGHPSTGLKTTTPGPSLSQGVSVDEKLMPSAPVNTTTYVADTESEQADTWDLSERPKEIKVSKMEQKFRMLSQDAPTVKESCKTSSNNNSMVSNTLAKMRIPNYQLSPTKLPSINKSKDRASQQQQTNSIRNYFQPSTKKRERDEENQEMSSCKSARIETSCSLLEQTQPATPSLWKNKEQHLSENEPVDTNSDNNLFTDTDLKSIVKNSASKSHAAEKLRSNKKREMDDVAIEDEVLEQLFKDTKPELEIDVKVQKQEEDVNVRKRPRMDIETNDTFSDEAVPESSKISQENEIGKKRELKEDSLWSAKEISNNDKLQDDSEMLPKKLLLTEFRSLVIKNSTSRNPSGINDDYGQLKNFKKFKKVTYPGAGKLPHIIGGSDLIAHHARKNTELEEWLRQEMEVQNQHAKEESLADDLFRYNPYLKRRR", "notes": "NBS1 (nibrin), component of the MRN complex; plasmid pcDNA3.1(+)-C-eGFP-NBS1 from GenScript; also called GFP-NBS1; pcDNA3.1(+)-C-eGFP-NBS1; source: U2OS-LacO#13 cells, transfected, in cells; not shown: eGFP, C-terminal, kept"}}, "target": "T1, mCherry-LacR-MITF (human, UniProt O75030-9 1-419)", "T1 construct": "MITF, human; In the self-association test the second copy was MITF-GFP (pEGFP-C1-MITF, Ngeow et al. 2018) in place of mCherry-LacR; also called LacR-mCherry-MITF; MITF WT; source: U2OS-LacO#13 cells, transfected, in cells; not shown: mCherry-LacR, N-terminal, kept", "T1 sequence (looked up)": "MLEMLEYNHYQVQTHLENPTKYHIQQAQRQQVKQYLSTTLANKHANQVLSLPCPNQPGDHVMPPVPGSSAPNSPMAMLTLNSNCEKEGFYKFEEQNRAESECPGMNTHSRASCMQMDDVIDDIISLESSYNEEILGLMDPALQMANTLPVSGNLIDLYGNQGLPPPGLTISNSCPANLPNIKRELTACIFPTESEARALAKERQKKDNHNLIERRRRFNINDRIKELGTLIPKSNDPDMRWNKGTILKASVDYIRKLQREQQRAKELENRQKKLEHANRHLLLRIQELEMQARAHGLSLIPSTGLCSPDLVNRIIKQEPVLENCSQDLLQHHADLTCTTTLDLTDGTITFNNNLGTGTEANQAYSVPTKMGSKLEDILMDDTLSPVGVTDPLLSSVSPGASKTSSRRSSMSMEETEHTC", "test": "LacR/LacO nuclear tethering assay; U2OS-LacO#13 cells transfected 24 h with an mCherry-LacR bait (tethered at the LacO array) and a GFP-tagged prey; fixed, confocal microscopy; ratio of GFP fluorescence inside the mCherry dot to the rest of the nucleus", "conditions": "partners not purified", "data": [{"binder": "B1", "values": [{"measurement": "median enrichment of GFP at the mCherry dot over the rest of the nucleus", "result": 7, "unit": "fold"}]}]}
